Where two headings read alike, the source gives them in different places. Numbered stars: 1 amine (or outer) side, 2 acyl side, 3 side chain; on linkers, the order of the positions; unused ones are H or OH. Bridge positions count the residues as written; N and C are the ends. Side chains are listed from the residue outwards. Ends that are not written are not given here. * marks the point of attachment. C20 diacid = O=C(O)CCCCCCCCCCCCCCCCCCC(=O)*; γGlu = O=C(O)[C@H](CCC(=O)[*:2])N[*:1]
T1: human amylin receptor (amylin 3(a) receptor: human calcitonin receptor co-expressed with RAMP-3) (human, UniProt P30988 25-474; O60896 24-148, limits assumed)
T1 sequence (looked up) 1: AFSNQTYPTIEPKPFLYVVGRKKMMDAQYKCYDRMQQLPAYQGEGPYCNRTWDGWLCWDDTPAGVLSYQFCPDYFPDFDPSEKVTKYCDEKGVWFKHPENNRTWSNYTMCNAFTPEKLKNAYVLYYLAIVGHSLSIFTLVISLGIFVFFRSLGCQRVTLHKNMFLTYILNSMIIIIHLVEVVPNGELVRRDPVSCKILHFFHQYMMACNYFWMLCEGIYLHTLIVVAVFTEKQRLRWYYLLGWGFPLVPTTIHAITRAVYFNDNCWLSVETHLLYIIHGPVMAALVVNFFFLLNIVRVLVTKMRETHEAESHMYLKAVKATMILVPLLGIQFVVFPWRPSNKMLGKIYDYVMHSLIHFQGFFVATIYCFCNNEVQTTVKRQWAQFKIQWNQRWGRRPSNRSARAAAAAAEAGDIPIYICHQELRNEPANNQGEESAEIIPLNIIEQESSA
T1 sequence (looked up) 2: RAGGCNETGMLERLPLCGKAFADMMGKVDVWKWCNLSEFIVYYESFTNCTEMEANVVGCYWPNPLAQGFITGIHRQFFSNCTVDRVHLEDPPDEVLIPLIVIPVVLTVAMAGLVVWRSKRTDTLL

T2: human calcitonin receptor (human, UniProt P30988 25-474)
T2 sequence (looked up): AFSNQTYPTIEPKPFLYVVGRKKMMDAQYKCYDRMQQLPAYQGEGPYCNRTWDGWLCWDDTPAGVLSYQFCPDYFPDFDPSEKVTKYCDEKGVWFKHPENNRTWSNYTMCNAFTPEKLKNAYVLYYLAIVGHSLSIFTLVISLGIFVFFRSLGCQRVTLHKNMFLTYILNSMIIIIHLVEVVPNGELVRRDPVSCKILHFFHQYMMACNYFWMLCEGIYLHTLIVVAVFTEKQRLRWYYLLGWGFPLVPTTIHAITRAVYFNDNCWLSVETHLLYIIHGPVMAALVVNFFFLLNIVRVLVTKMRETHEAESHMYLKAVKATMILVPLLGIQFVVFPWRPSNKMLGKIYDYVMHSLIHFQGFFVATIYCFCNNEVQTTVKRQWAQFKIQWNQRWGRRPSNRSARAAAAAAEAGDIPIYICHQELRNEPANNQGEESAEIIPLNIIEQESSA

T3: human amylin 3(a) receptor (human calcitonin receptor plus RAMP-3) (human, UniProt P30988 25-474; O60896 24-148, limits assumed)
T3 construct: whole, on cells; Whole cells in the luciferase assay (Assay II a); also called hAmylin-R; human amylin receptor
T3 sequence (looked up) 1: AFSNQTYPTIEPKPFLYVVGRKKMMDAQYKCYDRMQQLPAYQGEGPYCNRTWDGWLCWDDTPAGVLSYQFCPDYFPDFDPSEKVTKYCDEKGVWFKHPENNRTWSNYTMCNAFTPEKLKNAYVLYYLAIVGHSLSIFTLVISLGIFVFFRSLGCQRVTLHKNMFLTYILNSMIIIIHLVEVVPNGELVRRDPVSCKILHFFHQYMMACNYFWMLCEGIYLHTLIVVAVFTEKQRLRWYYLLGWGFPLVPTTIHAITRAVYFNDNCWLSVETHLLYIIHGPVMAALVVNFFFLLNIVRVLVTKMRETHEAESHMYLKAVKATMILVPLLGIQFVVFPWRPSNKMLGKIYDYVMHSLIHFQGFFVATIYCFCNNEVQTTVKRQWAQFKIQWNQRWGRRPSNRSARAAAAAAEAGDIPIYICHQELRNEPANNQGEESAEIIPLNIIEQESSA
T3 sequence (looked up) 2: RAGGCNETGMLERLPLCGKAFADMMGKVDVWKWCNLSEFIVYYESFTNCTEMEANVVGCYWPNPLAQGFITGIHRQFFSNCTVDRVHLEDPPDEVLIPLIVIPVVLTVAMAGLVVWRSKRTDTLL

T4: human calcitonin receptor (human, UniProt P30988 25-474)
T4 sequence (looked up): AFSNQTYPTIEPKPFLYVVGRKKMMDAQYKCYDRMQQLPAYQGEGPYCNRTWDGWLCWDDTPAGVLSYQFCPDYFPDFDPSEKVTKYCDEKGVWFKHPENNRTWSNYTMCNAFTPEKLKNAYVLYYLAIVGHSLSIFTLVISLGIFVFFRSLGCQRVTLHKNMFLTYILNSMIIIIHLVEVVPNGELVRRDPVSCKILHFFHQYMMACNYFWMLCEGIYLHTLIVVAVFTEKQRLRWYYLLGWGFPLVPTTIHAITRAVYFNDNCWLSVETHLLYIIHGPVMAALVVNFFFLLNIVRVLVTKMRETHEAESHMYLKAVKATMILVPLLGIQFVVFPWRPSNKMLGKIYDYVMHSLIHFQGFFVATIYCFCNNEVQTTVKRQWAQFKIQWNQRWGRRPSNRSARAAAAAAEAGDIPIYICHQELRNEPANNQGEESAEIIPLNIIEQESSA


Assays:
[1] = biological target: T1, human amylin receptor (amylin 3(a) …); assay: cell-based or functional assay
[2] = biological target: T2, human calcitonin receptor; assay: cell-based or functional assay
[3] = biological target: T3, human amylin 3(a) receptor (human …); assay: SPA competition binding, displacement of 125I-rat amylin from membranes of Amylin 3(a)/CRE-luc BHK cells (Assay V)
Protocol: The binding assay was performed using scintillation proximity assay (SPA) beads (RPNQ0001) from PerkinElmer and cell membranes from the Amylin 3(a)/CRE-luc cells (as described in Assay (II)) were used. Membranes were prepared in the following way; the cells were rinsed with PBS and incubated with Versene for approximately 5 min before harvesting. The cells were flushed with PBS and the cell-suspension was centrifuged for 5 min at 1000 rpm. Cells were homogenized (ultrathurrax) in a buffer containing 20 mM Na-HEPES and 10 mM EDTA (pH 7.4) and centrifuged at 20.000 rpm for 15 min. The resulting pellet was resuspended, homogenized and centrifuged (20.000 rpm, 15 min) in a buffer containing 20 mM Na-HEPES and 0.1 mM EDTA (pH 7.4, buffer 2). The resulting pellet was resuspended in buffer 2 and protein concentration was measured (BCA protein Assay, Pierce). The homogenate was kept cold during the whole procedure. The membranes were kept at −80° C. until use. The assay was performed in a 384 well Optiplate (PerkinElmer) in a total volume of 40 ul. Membranes were mixed with SPA beads. Final concentration of membranes 35 ng/μL final and SPA beads was 0.05 mg/well. Test-compounds were dissolved in DMSO and further diluted in assay buffer (50 mM Hepes, pH 7.4, 1 mM CaCl2, 5 mM MgCl₂, 0.1% OA and 0.02% Tween20). […] The final mixture was incubated with shaking at 400 rpm for 120 min at 25° C. prior to centrifugation (1500 rpm, 10 min). Samples were analyzed on TopCounter™ (Packard). The IC₅₀ was calculated using (one site binding competition analysis) GraphPad Prism5 as a measure of receptor affinity.

[4] = biological target: T3, human amylin 3(a) receptor (human …); assay: cell-based or functional assay
[5] = biological target: T4, human calcitonin receptor; assay: cell-based or functional assay; remark: listed apart in the source

hAmylin-R funct. EC50 [1] [nM] | Ratio hCT/hAmylin funct. (hCTR EC50 against hAmylin-R EC50) [2] | hCTR funct. EC50 [2] [nM] | IC50 [3] [nM] | Ratio hCT/hAmylin funct. [4] | hAmylin-R funct. EC50 [4] [nM] | hCTR funct. EC50 [5] [nM] | Binder
0.116 | 17 | 1.97 |  |  |  |  | K([γGlu-C20 diacid])CNTATCATQRLANFLRHSSPNFGAIPSSTNVGSNTY-NH2 (disulfide 2-7; N-terminus assumed; SMILES CC[C@H](C)[C@H](NC(=O)[C@H](C)NC(=O)CNC(=O)[C@H](Cc1ccccc1)NC(=O)[C@H](CC(N)=O)NC(=O)[C@@H]1CCCN1C(=O)[C@H](CO)NC(=O)[C@H](CO)NC(=O)[C@H](Cc1c[nH]cn1)NC(=O)[C@H](CCCNC(=N)N)NC(=O)[C@H](CC(C)C)NC(=O)[C@H](Cc1ccccc1)NC(=O)[C@H](CC(N)=O)NC(=O)[C@H](C)NC(=O)[C@H](CC(C)C)NC(=O)[C@H](CCCNC(=N)N)NC(=O)[C@H](CCC(N)=O)NC(=O)[C@@H](NC(=O)[C@H](C)NC(=O)[C@@H]1CSSC[C@H](NC(=O)[C@@H](N)CCCCNC(=O)CC[C@H](NC(=O)CCCCCCCCCCCCCCCCCCC(=O)O)C(=O)O)C(=O)N[C@@H](CC(N)=O)C(=O)N[C@@H]([C@@H](C)O)C(=O)N[C@@H](C)C(=O)N[C@@H]([C@@H](C)O)C(=O)N1)[C@@H](C)O)C(=O)N1CCC[C@H]1C(=O)N[C@@H](CO)C(=O)N[C@@H](CO)C(=O)N[C@H](C(=O)N[C@@H](CC(N)=O)C(=O)N[C@H](C(=O)NCC(=O)N[C@@H](CO)C(=O)N[C@@H](CC(N)=O)C(=O)N[C@H](C(=O)N[C@@H](Cc1ccc(O)cc1)C(N)=O)[C@@H](C)O)C(C)C)[C@@H](C)O, also called compound 48) [N^ε1-[(4S)-4-carboxy-4-(19-carboxynonadecanoylamino)butanoyl]-[Arg17,Pro21,Pro27]-h-amylin]
 |  |  | 0.143 | 7.4 | 0.175 | 1.29 | KCNTATCATQRLAEFLRHSSPNFGAIPSSTNVGSNTY (C20 diacid-gGlu on the alpha amino group of the N-terminal residue (position 1); disulfide bridge Cys2-Cys7; C-terminal amide, also called compound 9) [N^α1-[(4S)-4-carboxy-4-(19-carboxynonadecanoylamino)butanoyl]-[Glu14,Arg17,Pro21,Pro27]-h-amylin]
 |  |  | 0.374 | 1 | 0.162 | 0.16 | {C20 diacid-γGlu}-KCNTATCATQRLAEFLRHSSPNFGAPLSSTNVGSNTP-NH2 (disulfide 2-7; SMILES CC(C)C[C@H](NC(=O)[C@H](CCCNC(=N)N)NC(=O)[C@H](CCC(N)=O)NC(=O)[C@@H](NC(=O)[C@H](C)NC(=O)[C@@H]1CSSC[C@H](NC(=O)[C@H](CCCCN)NC(=O)CC[C@H](NC(=O)CCCCCCCCCCCCCCCCCCC(=O)O)C(=O)O)C(=O)N[C@@H](CC(N)=O)C(=O)N[C@@H]([C@@H](C)O)C(=O)N[C@@H](C)C(=O)N[C@@H]([C@@H](C)O)C(=O)N1)[C@@H](C)O)C(=O)N[C@@H](C)C(=O)N[C@@H](CCC(=O)O)C(=O)N[C@@H](Cc1ccccc1)C(=O)N[C@@H](CC(C)C)C(=O)N[C@@H](CCCNC(=N)N)C(=O)N[C@@H](Cc1c[nH]cn1)C(=O)N[C@@H](CO)C(=O)N[C@@H](CO)C(=O)N1CCC[C@H]1C(=O)N[C@@H](CC(N)=O)C(=O)N[C@@H](Cc1ccccc1)C(=O)NCC(=O)N[C@@H](C)C(=O)N1CCC[C@H]1C(=O)N[C@@H](CC(C)C)C(=O)N[C@@H](CO)C(=O)N[C@@H](CO)C(=O)N[C@H](C(=O)N[C@@H](CC(N)=O)C(=O)N[C@H](C(=O)NCC(=O)N[C@@H](CO)C(=O)N[C@@H](CC(N)=O)C(=O)N[C@H](C(=O)N1CCC[C@H]1C(N)=O)[C@@H](C)O)C(C)C)[C@@H](C)O, also called compound 5)

Source: US20140087995A1 (published 2014)
